Experiment: Plasma plasminogen level after tail vein injection in SOD1-G93A mice (ELISA)
Format: in vivo, mouse
Protocol: Twenty-seven 10-15 week-age B6.Cg-Tg (SOD1-G93A) 1Gur/J (SOD1-G93A) mice (pedigree number: 004435) (referred to as SOD1-G93A mice) (breeding mice were purchased from Jackson Laboratory, USA) were randomly divided into three groups: three in the vehicle control group, 12 in the 6 mg/kg plasminogen group, and 12 in the 50 mg/kg plasminogen group. The mice in the vehicle control group were injected with vehicle at 5 ml/kg by tail vein, the mice in the 6 mg/kg plasminogen group were injected with plasminogen (1.2 mg/ml) at 6 mg/kg body weight by tail vein, and the mice in the 50 mg/kg plasminogen group were injected with plasminogen (10 mg/ml) at 6 mg/kg body weight by tail vein. The mice in the vehicle control group were killed 2 hours after administration, and their blood was collected. Three mice in the 6 mg/kg plasminogen group and three mice in the 50 mg/kg plasminogen group were killed at 2, 6, 12 and 24 hours after administration, and their blood was collected. After the blood was centrifuged (3500 rpm, 10 min, 4° C.), the supernatant was taken to test according to the instructions of Human Plasminogen ELISA Kit (manufacturer: AssayMax, catalog number: EP1200-1). The concentration of each sample was calibrated by using human plasminogen working standard as the internal standard. The calibrated concentration was divided by the total protein concentration to calculate the amount of plasminogen per unit of total protein in each sample and perform statistical analysis.

B1: plasminogen: human plasminogen purified from human donor plasma, in which human Lys-plasminogen and Glu-plasminogen are >98% (protein)
chain: KVYLSECKTGNGKNYRGTMSKTKNGITCQKWSSTSPHRPRFSPATHPSEGLEENYCRNPDNDPQGPWCYTTDPEKRYDYCDILECEEECMHCSGENYDGKISKTMSGLECQAWDSQSPHAHGYIPSKFPNKNLKKNYCRNPDRELRPWCFTTDPNKRWELCDIPRCTTPPPSSGPTYQCLKGTGENYRGNVAVTVSGHTCQHWSAQTPHTHNRTPENFPCKNLDENYCRNPDGKRAPWCHTTNSQVRWEYCKIPSCDSSPVSTEQLAPTAPPELTPVVQDCYHGDGQSYRGTSSTTTTGKKCQSWSSMTPHRHQKTPENYPNAGLTMNYCRNPDADKGPWCFTTDPSVRWEYCNLKKCSGTEASVVAPPPVVLLPDVETPSEEDCMFGNGKGYRGKRATTVTGTPCQDWAAQEPHRHSIFTPETNPRAGLEKNYCRNPDGDVGGPWCYTTNPRKLYDYCDVPQCAAPSFDCGKPQVEPKKCPGRVVGGCVAHPHSWPWQVSLRTRFGMHFCGGTLISPEWVLTAAHCLEKSPRPSSYKVILGAHQEVNLEPHVQEIEVSRLFLEPTRKDIALLKLSSPAVITDKVIPACLPSPNYVVADRTECFITGWGETQGTFGAGLLKEAQLPVIENKVCNRYEFLNGRVQSTELCAGHLAGGTDSCQGDSGGPLVCFEKDKYILQGVTSWGLGCARPNKPGVYVRVSRFVTWIEGVMRNN
With B1 the “plasma plasminogen level, 50 mg/kg group compared with 6 mg/kg group” value (tail vein) was “significantly higher”, the “time within which plasminogen is almost completely metabolized (plasma)” value (tail vein 50 mg/kg and 6 mg/kg, level decreases from 2 hours) was 12 to 24 h and the plasma plasminogen level (tail vein injection of 6 mg/kg) was “increase significantly”. The plasma plasminogen level (tail vein injection of 50 mg/kg) was “increase significantly”.

Source: patent publication US20260166131A1, “METHOD FOR PROMOTING PATHOLOGICAL TDP-43 PROTEIN DEGRADATION, AND DRUG” (TALENGEN INTERNATIONAL LIMITED, priority 2022, published 2026)
